This note sets out measurements from patent US20220218614A1, “IONIZABLE CATIONIC LIPIDS AND LIPID NANOPARTICLES, AND METHODS OF SYNTHESIS AND USE THEREOF” (Tidal Therapeutics, Inc., priority 2020, published 2022).

The labels stand for the following.
B1: Lorvotuzumab: anti-CD56 Lorvotuzumab Fab bDS, SEQ ID NO: 32 and 33 (antibody)
heavy: QVQLVESGGGVVQPGRSLRLSCAASGFTFSSFGMHWVRQAPGKGLEWVAYISSGSFTIYYADSVKGRFTISRDNSKNTLYLQMNSLRAEDTAVYYCARMRKGYAMDYWGQGTLVTVSSASTKGPSVFPLAPSSKSTSGGTAALGCLVKDYFPEPVTVSWNSGALTSGVHTCPAVLQSSGLYSLSSVVTVPSSSLGTQTYICNVNHKPSNTKVDKKVEPKSSDKTHTCHHHHHH
light: DVVMTQSPLSLPVTLGQPASISCRSSQIIIHSDGNTYLEWFQQRPGQSPRRLIYKVSNRFSGVPDRFSGSGSGTDFTLKISRVEAEDVGVYYCFQGSHVPHTFGQGTKVEIKRTVAAPSVFIFPPSDEQLKSGTASVVCLLNNFYPREAKVQWKVDNALQSGNSQESVTEQDSKDSTYSLCSTLTLSKADYEKHKVYACEVTHQGLSSPVTKSFNRGES
B2: A3: anti-CD56 A3 Fab bDS, SEQ ID NO: 30 and 31 (antibody)
heavy: EVQLVQSGAEVKKPGSSVKVSCKASGGTFTGYYMHWVRQAPGQGLEWMGWINPNSGGTNYAQKFQGRVTMTRDTSISTAYMELSRLRSDDTAVYYCARDLSSGYSGYFDYWGQGTLVTVSSASTKGPSVFPLAPSSKSTSGGTAALGCLVKDYFPEPVTVSWNSGALTSGVHTCPAVLQSSGLYSLSSVVTVPSSSLGTQTYICNVNHKPSNTKVDKKVEPKSSDKTHTCGGHHHHHH
light: DVVMTQSPLSLPVTPGEPASISCRSSQSLLHSNGYNFLDWYLQKPGQSPQLLIYLGSNRASGVPDRFSGSGSGTDFTLKISRVEADDVGVYYCMQSLQTPWTFGHGTKVEIKRTVAAPSVFIFPPSDEQLKSGTASVVCLLNNFYPREAKVQWKVDNALQSGNSQESVTEQDSKDSTYSLCSTLTLSKADYEKHKVYACEVTHQGLSSPVTKSFNRGES
B3: 12D2: anti-CD3 12D2 bDS Fab, SEQ ID NO: 84 and 85 (antibody)
heavy: EVKLVESGGGLVQPGRSLRLSCAASGFNFYAYWMGWVRQAPGKGLEWIGEIKKDGTTINYTPSLKDRFTISRDNAQNTLYLQMTKLGSEDTALYYCAREERDGYFDYWGQGVMVTVSSASTKGPSVFPLAPSSKSTSGGTAALGCLVKDYFPEPVTVSWNSGALTSGVHTCPAVLQSSGLYSLSSVVTVPSSSLGTQTYICNVNHKPSNTKVDKKVEPKSSDKTHTCGGHHHHHH
light: QFVLTQPNSVSTNLGSTVKLSCKRSTGNIGSNYVNWYQQHEGRSPTTMIYRDDKRPDGVPDRFSGSIDRSSNSALLTINNVQTEDEADYFCQSYSSGIVFGGGTKLTVLSQPKAAPSVTLFPPSSEELQANKATLVCLVSDFYPGAVTVAWKADGSPVKVGVETTKPSKQSNNKYAACSYLSLTPEQWKSHRSYSCRVTHEGSTVEKTVAPAESS
B4: TRX2 ScFv: anti-CD8 TRX2 ScFv, SEQ ID NO: 98 (protein)
scFv: QVQLVESGGGVVQPGRSLRLSCAASGFTFSDFGMNWVRQAPGKGLEWVALIYYDGSNKFYADSVKGRFTISRDNSKNTLYLQMNSLRAEDTAVYYCAKPHYDGYYHFFDSWGQGTLVTVSSGGGGSGGGGSGGGGSGGGGSDIQMTQSPSSLSASVGDRVTITCKGSQDINNYLAWYQQKPGKAPKLLIYNTDILHTGVPSRFSGSGSGTDFTFTISSLQPEDIATYYCYQYNNGYTFGQGTKVEIKGGGSGGCGGHHHHHH
B5: OKT4: anti-CD4 humanized OKT4 bDS Fab, SEQ ID NO: 74 and 75 (antibody)
heavy: EVQLVESGGGLVQPGGSLRLSCAASGFTFSNYAMSWVRQAPGKRLEWVSAISDHSTNTYYPDSVKGRFTISRDNAKNTLYLQMNSLRAEDTAVYYCARKYGGDYDPFDYWGQGTLVTVSSASTKGPSVFPLAPSSKSTSGGTAALGCLVKDYFPEPVTVSWNSGALTSGVHTCPAVLQSSGLYSLSSVVTVPSSSLGTQTYICNVNHKPSNTKVDKKVEPKSSDKTHTCHHHHHH
light: DIQMTQSPSSLSASVGDRVTITCQASQDINNYIAWYQHKPGKGPKLLIHYTSTLQPGIPSRFSGSGSGRDYTLTISSLQPEDFATYYCLQYDNLLFTFGGGTKVEIKRTVAAPSVFIFPPSDEQLKSGTASVVCLLNNFYPREAKVQWKVDNALQSGNSQESVTEQDSKDSTYSLCSTLTLSKADYEKHKVYACEVTHQGLSSPVTKSFNRGES
B6: V1: anti-CD7 Nanobody, SEQ ID NO: 80 (protein)
VHH: DVQLQESGGGLVQAGGSLRLSCAVSGYPYSSYCMGWFRQAPGKEREGVAAIDSDGRTRYADSVKGRFTISQDNAKNTLYLQMNRMKPEDTAMYYCAARFGPMGCVDLSTLSFGHWGQGTQVTVSITGGGCHHHHHHHH

For the first assay, the system named is primary human NK cells. As to the kind of experiment: LNP transfection of co-cultured human T cells and NK cells: NK cells. Type of assay: cell-based. The following applies: Lipid 8 LNP, 2.5 ug/mL mRNA, 24 hours. As for the experimental part: CD3-depleted PBMCs were purified using magnetic-based CD3 positive selection and retaining of the negative fraction. 20 million CD3 depleted PBMCs were added to 1 well of a 6 well GREX plate in media containing 10 ng/mL IL-15 for 7 days. On day 7, each well was split in 2 and cells were cultured further in media containing 10 ng/mL IL-15 for an additional 7 days. On day 14, NK cells were concentrated to 1 million cells/mL in preparation for co-transfection with primary human T cells.
LNPs were prepared using the mixing process described in Example 6, the buffer exchange process described in Example 25. The LNPs were formulated using eGFP encoding mRNA (TriLink Biotechnologies, California, US), Lipid 8 as the ionizable lipid, and labeled with 0.01 mol % DiIC18(5)-DS (Invitrogen, Massachusetts, US). Fab-lipid conjugates generated from methods described in Example 4 while generation of Nb-conjugated differed in using 1:1:4 Nb:DSPE-SKPEG-maileimide:DSPE-2KPEG-OCH3 and a 50 kD UF membrane (Millipore Corp, Billerica, Mass. USA) for separation of Nb-conjugate from free Nb. Using methods similar to Example 12, conjugated Fabs and conjugated Nb were post-inserted at various densities (Table 41) into LNPs containing Lipid 8 and GFP mRNA with DiI dye. […]. […]
24 hours after LNP transfection, cell culture media was aspirated from T cell and NK cell co-cultures after centrifugation. […] Following acquisition by flow cytometry, T cells and NK cells were analyzed independently using FlowJo (flow cytometry analysis software). In either CD3+ cells (T cells) or CD56+ cells (NK cells), the frequency of GFP positive events relative to GFP negative events was calculated (FIG. 64A). Additionally, the overall fluorescence of GFP was quantified by assessment of mean fluorescence intensity (MFI, FIG. 64B). […] Together, these metrics enabled quantification of LNP transfection efficiency of all targeted LNPs tested in primary human T cell and NK cell co-cultures.
On to B1, for which the “transfection of NK cells in T/NK co-culture (% GFP, GFP MFI, DiI), in words” value is listed as “highly specific transfection of NK cells”.

Take B2: the “transfection of NK cells in T/NK co-culture (% GFP, GFP MFI, DiI), in words” value is listed as “highly specific transfection of NK cells”.

In the next assay the test system is human CD3 T cells. As to the kind of experiment: Transfection of human CD3 T cells (CD8 and CD4 subsets) with Fab/Nb-targeted LNPs. Type of assay: cell-based. The following applies: targeted Lipid 8 LNP (Lipid 5 in Example 43), GFP mRNA approximately 2.5 μg/mL, approximately 24 hr. The method, then:
LNPs were prepared using the mixing process described in Example 6, the buffer exchange process described below in Example 21. Using methods similar to Example 12, hSP34 and TRX2 Fab-lipid conjugates and a non-T cell specific anti-HER2 lipid-conjugate (Nellis D F, Ekstrom D L, Kirpotin D B, Zhu J, Andersson R, Broadt T L, Ouellette T F, Perkins S C, Roach J M, Drummond D C, Hong K, Marks J D, Park J W and Giardina S L (2005) Preclinical manufacture of an anti-HER2 scFv-PEG-DSPE, liposome-inserting conjugate. 1. Gram-scale production and purification. Biotechnol Prog 21:205-220) were post-inserted at various densities (SP34 0.25-17 g/mol; TRX2 0.25-9 g/mol; SP34+TRX2 0.25-9 g/mol each conjugate; anti-HER2 17 g/mol) into LNPs containing Lipid 8 and anti-CD20 targeting CART mRNA. Transfections were performed with human CD3 T cells at approximately 2.5 μg/mL mRNA for approximately 24 hr. For FACS analysis T cells were stained with M1 antibody (Sigma, F3040) that bind a N-terminus FLAG-tag variant sequence on the TTR-023 CAR (sequence provided below) in addition to staining for CD69 (Biolegend, 310930) and CD4 (Biolegend, 344648) to differentiate CD8 from CD4 cells.
LNPs were prepared using the mixing process described in Example 6, the buffer exchange process described in Example 21. Using methods similar to Example 12, hSP34, TRX2, and Ibalizumab Fab-lipid conjugates and a non-T cell specific anti-HER2 lipid-conjugate were post-inserted at various densities (specified in FIGS. 20A and 20B into LNPs containing Lipid 8 and Cy5/GFP mRNA. Transfections were performed with human CD3 T cells at approximately 2.5 μg/mL mRNA for approximately 24 hr and stained for CD69 (Biolegend, 310930) and CD4 (Biolegend, 344648) to differentiate CD8 from CD4 cells by FACS analysis.
LNPs were prepared using the mixing process described in Example 6, the buffer exchange process described in Example 21. Conjugates were generated using a method similar to that of Example 4 except 0.025, 0.1, 0.5 mM TCEP was used for hSP34 DS, 0.025, 0.2, 2 mM TCEP was used for hSP34-hlam NoDS (interchain disulfide knockout) for reduction prior to conjugation and the conjugation reactions were performed at 37 C for 2 hr. SDS-PAGE (FIGS. 65A, 65B) was performed using the manufacturers recommended conditions with 1 ug of protein (Thermo, 4-12% Bis-Tris MiniGel). RP-HPLC (FIGS. 65C, 65D) was performed using an Agilent 300 SB-C8 at 0.5 mL/min with a column temperature of 60° C., Mobile Phase A: Water with 0.1% TFA, Mobile Phase B: Acetonitrile with 0.1% TFA, Gradient % B: 0 min 5%, 1 min 5%, 6.5 min 95%, 8 min 95% injecting 10 ul with a target of 1-25 ug of protein. Using methods similar to Example 12, ant-CD3 hSP34 (with and without natural interchain disulfide, DS (with interchain disulfide) vs. NoDS (without interchain disulfide), see sequences below) PEG-lipid conjugated Fabs were post-inserted at various Fab densities (6, 12, 17 g Fab/mol total lipid) into LNPs containing Lipid 8 and Cy5/GFP mRNA. Transfections were performed with human CD3 T cells at approximately 2.5 μg/mL mRNA for approximately 24 hr. Levels of transfection of CD3 T cells was measured by flow cytometry.
LNPs were prepared using the mixing process described in Example 6, the buffer exchange process described in Example 21. Conjugates were generated using a method similar to that of Example 4 except 0.1 mM TCEP was used for reduction prior to conjugation and the conjugation reaction was performed at 37 C for 2 hr. […]
For the molecule B3, the “% GFP transfection and GFP expression (MFI) of CD8 and CD4 T cells, in words” value (shortened to “% GFP transfection and GFP expression”) is “can efficiently transfect both CD8 and CD4 T cell subsets”.

Consider B4, for which the “% GFP transfection and GFP expression” value was “slightly lower % transfection (FIG. 82A) and GFP expression levels (FIG. 82B) in the CD8 T cell subset relative to the anti-CD8 TRX2 NoDS Fab”.

B5: the “% GFP transfection and GFP expression” value is “highly specific LNP transfection and protein translation of CD4+ T cells versus CD8+ T cells”.

Take B6: the “% GFP transfection and GFP expression” value is 3.4K PEG mediated higher transfection and expression than the 5K PEG.
